Measurements reported in patent publication US20260258125A1 (NONA BIOSCIENCES SUZHOU, published 2026).

Assays:
[1] = target: T1, cyno CEACAM5 protein (cynomolgus monkey); test: ELISA, antigen coated on plate
T1 construct: also called cynomolgus CEACAM5
Text: (§1) Binding of recombinant anti-CEACAM5/6 dual-binding monoclonal antibodies against human and cynomolgus CEACAM5, and human CEACAM6 (Uniprot P40199), human CEACAM 1, 3 (NP_001806.2, Sino Biological 11933-H08H) and 8 (NP_001807.2, Acro Bio CE8-H5224) were detected by ELISA. Anti-CEACAM5/6 dual-antibodies were serially diluted in staining buffer (PBS containing 2% FBS). […] ELISA was used to test the binding between antibody containing supernatant or purified antibodies and the antigen. Briefly, the antigens were coated on a 96-well high binding plate overnight at 4° C. The plate was washed with PBST three times, incubated with blocking buffer (2% Bovine Serum Albumin) for one hour at 37° C., washed with PBST three times and incubated with antibody containing supernatant or purified antibodies at desired dilutions or concentrations for one hour at 37° C. A secondary antibody, anti-human Fc-HRP (Jackson Laboratory, 109-035-097) was used for detection of the targeted antibody. TMB and stopping solution were used for detection of HRP signal. The HRP signal was read on a SPECTRAMAX plate reader.

[2] = target: T2, recombinant human CEACAM5 Fc-tag protein (human, UniProt P06731 35-685, limits assumed); test: Octet (BLI), antibody on AHC sensor, antigen in solution
T2 construct: also called huCEACAM5 (Octet); huCEACAM5-Fc; not shown: Fc tag
T2 sequence (looked up): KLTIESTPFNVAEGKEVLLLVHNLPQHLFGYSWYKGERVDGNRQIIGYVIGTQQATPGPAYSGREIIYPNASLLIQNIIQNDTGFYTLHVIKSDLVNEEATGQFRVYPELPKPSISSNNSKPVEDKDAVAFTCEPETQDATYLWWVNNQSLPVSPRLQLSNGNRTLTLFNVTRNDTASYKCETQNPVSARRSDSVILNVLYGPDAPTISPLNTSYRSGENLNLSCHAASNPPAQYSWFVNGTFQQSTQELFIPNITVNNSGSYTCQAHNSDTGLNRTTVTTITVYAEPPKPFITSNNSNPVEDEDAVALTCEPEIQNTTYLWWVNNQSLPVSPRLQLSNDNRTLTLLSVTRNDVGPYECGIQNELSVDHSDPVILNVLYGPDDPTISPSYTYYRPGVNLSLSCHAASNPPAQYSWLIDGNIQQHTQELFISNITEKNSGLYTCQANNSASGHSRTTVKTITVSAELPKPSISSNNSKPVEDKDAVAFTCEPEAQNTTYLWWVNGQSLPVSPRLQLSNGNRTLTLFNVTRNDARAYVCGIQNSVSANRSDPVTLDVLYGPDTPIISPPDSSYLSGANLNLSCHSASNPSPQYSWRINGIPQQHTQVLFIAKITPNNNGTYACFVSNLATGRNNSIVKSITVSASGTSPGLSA
Description: (§2) Binding kinetics of recombinant anti-CEACAM5/6 antibodies to CEACAM5 and CEACAM6 were analyzed by Octet. In Octet analysis, recombinant human CEACAM5 Fc-tag protein (#Uniprot P06731) or CEACAM6 Fc-tag protein (Uniprot P40199) was serially diluted with 1×kinetic buffer (Fortebio). Anti-CEACAM5/6 dual-binding antibodies were diluted to 5 μg/mL. Then diluted antibodies, antigen and regeneration buffer (10 mM glycine pH 1.75) were added to 96-well plates (Greiner). Rate constants for association and dissociation were measured using AHC sensor (Fortebio). The sensor surface was regenerated after each binding experiment with regeneration buffer. The traces were processed using ForteBio Data Analysis Software (version 8.0, Pall ForteBio, CA, USA).

[3] = target: T3, recombinant human CEACAM6 Fc-tag protein (human, UniProt P40199 35-320, limits assumed); test: as above
T3 construct: also called huCEACAM6 (Octet); not shown: Fc tag
T3 sequence (looked up): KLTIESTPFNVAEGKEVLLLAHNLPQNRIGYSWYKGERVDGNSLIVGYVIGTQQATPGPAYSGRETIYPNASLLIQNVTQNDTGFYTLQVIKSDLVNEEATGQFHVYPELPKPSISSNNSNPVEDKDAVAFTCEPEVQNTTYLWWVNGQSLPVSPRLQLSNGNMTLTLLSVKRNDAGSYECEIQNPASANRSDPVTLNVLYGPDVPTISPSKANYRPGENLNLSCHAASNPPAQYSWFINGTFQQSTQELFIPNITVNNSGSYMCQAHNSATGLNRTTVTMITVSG
Description: as §2

[4] = target: T4, human CEACAM3 protein (human, UniProt P40198 35-155); test: ELISA, human CEACAM3 protein coated on the plate, anti-human Fc-HRP, OD450
T4 construct: Bought protein; also called huCEACAM3
T4 sequence (looked up): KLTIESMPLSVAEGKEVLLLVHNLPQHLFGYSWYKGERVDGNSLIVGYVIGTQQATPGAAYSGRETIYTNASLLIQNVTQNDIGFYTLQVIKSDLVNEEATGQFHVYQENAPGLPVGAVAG
Text: as §1

[5] = target: T5, human CEACAM6 on 293T cells (293T-huCEACAM6 cells) (human, UniProt P40199 35-320); test: cell-based or functional assay
T5 sequence (looked up): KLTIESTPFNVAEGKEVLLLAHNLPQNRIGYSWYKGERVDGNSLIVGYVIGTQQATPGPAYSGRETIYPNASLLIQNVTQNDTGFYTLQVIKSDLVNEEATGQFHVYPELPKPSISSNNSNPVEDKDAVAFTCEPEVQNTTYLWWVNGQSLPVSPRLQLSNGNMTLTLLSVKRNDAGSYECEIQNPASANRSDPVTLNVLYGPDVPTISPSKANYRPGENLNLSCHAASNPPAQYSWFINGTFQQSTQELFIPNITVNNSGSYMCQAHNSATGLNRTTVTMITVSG

[6] = target: T6, human CEACAM5 on 293T cells (293T-huCEACAM5 cells) (human, UniProt P06731 35-685); test: cell-based or functional assay
T6 sequence (looked up): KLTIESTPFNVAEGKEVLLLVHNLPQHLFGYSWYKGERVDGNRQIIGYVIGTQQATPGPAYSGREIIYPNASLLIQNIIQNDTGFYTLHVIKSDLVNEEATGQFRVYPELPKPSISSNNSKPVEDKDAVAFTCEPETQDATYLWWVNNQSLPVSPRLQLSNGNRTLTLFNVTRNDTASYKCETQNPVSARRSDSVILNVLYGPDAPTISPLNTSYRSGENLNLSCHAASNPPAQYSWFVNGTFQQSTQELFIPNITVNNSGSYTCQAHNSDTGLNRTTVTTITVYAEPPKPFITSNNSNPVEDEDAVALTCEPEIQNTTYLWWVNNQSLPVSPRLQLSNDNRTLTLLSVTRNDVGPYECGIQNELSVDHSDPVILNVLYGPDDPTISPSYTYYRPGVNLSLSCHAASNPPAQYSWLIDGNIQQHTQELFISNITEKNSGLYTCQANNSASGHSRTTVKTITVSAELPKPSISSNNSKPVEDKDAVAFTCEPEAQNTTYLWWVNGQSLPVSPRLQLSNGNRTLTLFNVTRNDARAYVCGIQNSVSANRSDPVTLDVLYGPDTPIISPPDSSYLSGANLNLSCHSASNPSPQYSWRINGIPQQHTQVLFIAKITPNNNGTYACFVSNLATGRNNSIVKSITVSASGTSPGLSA

[7] = target: T5, human CEACAM6 on 293T cells …; test: flow cytometry on 293T-huCEACAM6 cells with against without 100 nM soluble CEACAM6
[8] = target: T7, recombinant CEACAM5-his protein, biotinylated (UniProt P06731 35-685, limits assumed, biotinylated (sites not given)); test: Octet epitope binning on biotinylated CEACAM5-his; competitor PR304169
T7 construct: not shown: His tag
T7 sequence (looked up): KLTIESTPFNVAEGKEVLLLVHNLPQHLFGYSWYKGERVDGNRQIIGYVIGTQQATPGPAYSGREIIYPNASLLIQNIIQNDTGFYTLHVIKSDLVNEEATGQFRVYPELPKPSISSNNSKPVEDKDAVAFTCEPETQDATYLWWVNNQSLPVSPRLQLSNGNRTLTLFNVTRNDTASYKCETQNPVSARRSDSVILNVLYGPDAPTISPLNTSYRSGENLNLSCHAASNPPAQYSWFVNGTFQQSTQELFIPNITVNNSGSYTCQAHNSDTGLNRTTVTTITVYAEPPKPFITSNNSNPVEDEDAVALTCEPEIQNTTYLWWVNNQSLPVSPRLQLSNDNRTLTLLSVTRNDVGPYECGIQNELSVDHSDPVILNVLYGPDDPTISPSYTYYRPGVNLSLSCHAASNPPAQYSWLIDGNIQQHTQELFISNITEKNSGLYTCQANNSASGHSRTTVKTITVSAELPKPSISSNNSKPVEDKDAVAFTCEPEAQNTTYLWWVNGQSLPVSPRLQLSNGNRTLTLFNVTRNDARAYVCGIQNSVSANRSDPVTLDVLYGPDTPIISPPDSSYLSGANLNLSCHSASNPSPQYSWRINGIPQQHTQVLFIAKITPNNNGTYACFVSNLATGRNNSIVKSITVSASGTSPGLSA
Description: (§3) In epitope binning analysis using Octet, antibodies were tested against other antibodies in a pairwise fashion to see if antibodies block one another's binding to the epitope of the antigen. The first and second antibodies was diluted into same concentration which could saturate the binding of immobilized antigens. Recombinant CEACAM5-his protein was biotinylationed and was then used as antigen and immobilized to SA sensor. The first antibody was associated with antigen and then followed by the second antibody. Data were analyzed by ForteBio Data Analysis Software (version 8.0, Pall ForteBio). The rate of RU values of the same antibody as 2nd antibody to as 1st antibody was calculated as the co-binding rate of this antibody to other antibodies.

[9] = target: T7, recombinant CEACAM5-his protein, …; test: Octet epitope binning on biotinylated CEACAM5-his; competitor PR303561
Description: as §3

B1: PR304294 (antibody, human IgG1, kappa, V domains shown)
VH: EVQLLESGGGLVQPGGSLRLSCAASGFTFSSYAMSWVRQAPGKGLEWVSAISGTTYNTYYAGSVKGRFTISRDNSKNTLYLQMNSLRAEDTAVYYCAKGISVAGYYYYGMDVWGQGTTVTVSS
VL: EIVMTQSPATLSVSPGERATLSCRASQSVISNLAWYQQKPGQAPRLLIYGASTRATGIPARFSGSGSGTEFTLTISSLQSEDFAVYYCHQYNNWPLTFGGGTKVEIKR
notes: Recombinant full antibody
EC50 [1]: 0.09 nM | Kd [2]: 5.48 nM | Kd [3]: 19.9 nM | binding result [4]: no binding (tested: 100 nM) | Internalization of pHAb-dye-labelled antibody, MFI (37° C.-4° C.)/DAR [5]: 14700 | Internalization of pHAb-dye-labelled antibody, MFI (37° C.-4° C.)/DAR [6]: 11300 | fold change of EC50 at the presence of 100 nM soluble protein [7]: 2.1 fold | co-binding rate [8]: 1.02% | co-binding rate [9]: 102%

B2: PR304171 (antibody, human IgG1, kappa, V domains shown)
VH: not shown
VL: EIVMTQSPATLSVSPGERATLSCRASQNVISNLAWHQQKPGQAPRLLIYTTSTRATGIPARFSGSGSGTEFTLTISSLQSEDFAVYYCQQYNNWPLTFGGGTKVEIKR
notes: Recombinant full antibody
EC50 [1]: 1.25 nM | co-binding rate [8]: 20.4% | co-binding rate [9]: 101%
